Laboratory results published in article PMC5472179 (Nature Communications, 2017).
Ends that are not written are not given here. * marks the point of attachment. FITC = O=C1OC2(c3ccc(O)cc3Oc3cc(O)ccc32)c2ccc(NC(=S)*)cc21

B1: eNP_(600–739) (domain or fragment)
chain: RTPTVAPPAPVYRDHSEKKELPQDEQQDQDHTQEARNQDSDNTQSEHSFEEMYRHILRSQGPFDAVLYYHMMKDEPVVFSTSDGKEYTYPDSLEEEYPPWLTEKEAMNEENRFVTLDGQQFYWPVMNHKNKFMAILQHHQ
B2: eVP30_(110–272) (domain or fragment)
chain: GSVEQQLNITAPKDSRLANPTADDFQQEEGPKITLLTLIKTAEHWARQDIRTIEDSKLRALLTLCAVMTRKFSKSQLSLLCETHLRREGLGQDQAEPVLEVYQRLHSDKGGSFEAALWQQWDRQSLIMFITAFLNIALQLPCESSAVVVSGLRTLVPQSDNEE

Key:
eVP30_(110–272) [1] = biological target: B2; experiment: ITC; conditions: both partners purified
eVP30_(110–272) [2] = biological target: B2; experiment: SEC-MALS; conditions: both partners purified
eVP30_(110–272) [3] = biological target: B2; experiment: fluorescence polarisation; conditions: both partners purified
SEC-MALS = biological target: the molecule itself; experiment: SEC-MALS

With B1 the Kd (eVP30_(110–272) [1]) was 3.75 µM, the “stoichiometry N” value (eVP30_(110–272) [1]) was 0.8 and the “stoichiometry N” value (eVP30_(110–272) [2]) was 1.

RTPTVAPPAPVYRDHS [eVP30BP (unlabelled)]: binds (eVP30_(110–272) [3]).

In the case of B2, the “stoichiometry N” value (SEC-MALS) is reported as 2.

{FITC}-RTPTVAPPAPVYRDHS [FITC-eVP30BP]: binds (eVP30_(110–272) [3]).
